# Assay results from publication doi:10.1101/2024.11.03.621741 (bioRxiv, 2024).
# B1: GST-FIGNL1-dNLS (domain or fragment)
# chain: AGKKFKDSLLEPALASVVIHKEATVFDLPKFSVCGSSQESDSLPNSAHDRDRTQDFPESNRLKLLQNAQPPMVTNTARTCPTFSAPVGESATAKFHVTPLFGNVKKENHSSAKENIGLNVFLSNQSCFPAACENPQRKSFYGSGTIDALSNPILNKACSKTEDNGPKEDSSLPTFKTAKEQLWVDQQKKYHQPQRASGSSYGGVKKSLGASRSRGILGKFVPPIPKQDGGEQNGGMQCKPYGAGPTEPAHPVDERLKNLEPKMIELIMNEIMDHGPPVNWEDIAGVEFAKATIKEIVVWPMLRPDIFTGLRGPPKGILLFGPPGTGKTLIGKCIASQSGATFFSISASSLTSKWVGEGEKMVRALFAVARCQQPAVIFIDEIDSLLSQRGDGEHESSRRIKTEFLVQLDGATTSSEDRILVVGATNRPQEIDEAARRRLVKRLYIPLPEASARKQIVINLMSKEQCCLSEEEIEQIVQQSDAFSGADMTQLCREASLGPIRSLQTADIATITPDQVRPIAYIDFENAFRTVRPSVSPKDLELYENWNKTFGCGK
# What was measured:
# [1] = molecular target: MMS22L-TONSL complex (recombinant, purified) (human, UniProt Q6ZRQ5;Q96HA7); test: pull-down
# [2] = molecular target: B1; test: pull-down
# Chain of MMS22L-TONSL complex (recombinant, purified) (Q6ZRQ5 whole entry, chain 1 of 2): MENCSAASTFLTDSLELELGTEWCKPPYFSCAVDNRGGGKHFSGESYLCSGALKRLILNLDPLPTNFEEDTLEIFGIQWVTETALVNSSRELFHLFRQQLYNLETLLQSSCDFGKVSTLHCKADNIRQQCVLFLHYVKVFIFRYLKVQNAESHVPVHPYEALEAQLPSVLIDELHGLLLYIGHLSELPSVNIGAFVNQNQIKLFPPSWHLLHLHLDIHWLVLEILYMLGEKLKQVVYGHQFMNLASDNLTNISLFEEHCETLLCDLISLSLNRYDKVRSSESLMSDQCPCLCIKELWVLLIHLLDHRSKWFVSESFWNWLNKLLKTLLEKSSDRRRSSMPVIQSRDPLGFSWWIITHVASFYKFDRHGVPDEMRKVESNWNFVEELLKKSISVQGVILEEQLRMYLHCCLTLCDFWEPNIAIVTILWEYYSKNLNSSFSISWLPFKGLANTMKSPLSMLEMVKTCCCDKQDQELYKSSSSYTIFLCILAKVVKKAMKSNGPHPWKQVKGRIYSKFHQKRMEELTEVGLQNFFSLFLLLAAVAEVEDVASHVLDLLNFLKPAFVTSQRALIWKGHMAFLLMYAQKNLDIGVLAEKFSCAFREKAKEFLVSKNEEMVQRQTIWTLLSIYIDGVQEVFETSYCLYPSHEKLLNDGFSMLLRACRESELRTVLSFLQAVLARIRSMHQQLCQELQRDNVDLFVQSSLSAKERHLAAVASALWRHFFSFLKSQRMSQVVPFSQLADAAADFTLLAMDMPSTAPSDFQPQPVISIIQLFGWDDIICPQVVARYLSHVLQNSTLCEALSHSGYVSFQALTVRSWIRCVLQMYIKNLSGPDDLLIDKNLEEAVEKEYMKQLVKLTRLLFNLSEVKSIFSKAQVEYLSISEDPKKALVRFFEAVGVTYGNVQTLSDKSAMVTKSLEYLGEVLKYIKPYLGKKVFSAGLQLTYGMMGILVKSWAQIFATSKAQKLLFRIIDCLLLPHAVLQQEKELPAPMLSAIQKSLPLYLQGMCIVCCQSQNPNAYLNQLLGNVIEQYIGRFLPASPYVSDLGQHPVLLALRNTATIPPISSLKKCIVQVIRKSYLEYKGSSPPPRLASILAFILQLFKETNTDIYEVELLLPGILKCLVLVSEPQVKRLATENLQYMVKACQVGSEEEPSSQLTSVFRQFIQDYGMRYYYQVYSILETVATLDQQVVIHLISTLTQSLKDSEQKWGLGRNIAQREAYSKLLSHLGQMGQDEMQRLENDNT
# Chain of MMS22L-TONSL complex (recombinant, purified) (Q96HA7 whole entry, chain 2 of 2): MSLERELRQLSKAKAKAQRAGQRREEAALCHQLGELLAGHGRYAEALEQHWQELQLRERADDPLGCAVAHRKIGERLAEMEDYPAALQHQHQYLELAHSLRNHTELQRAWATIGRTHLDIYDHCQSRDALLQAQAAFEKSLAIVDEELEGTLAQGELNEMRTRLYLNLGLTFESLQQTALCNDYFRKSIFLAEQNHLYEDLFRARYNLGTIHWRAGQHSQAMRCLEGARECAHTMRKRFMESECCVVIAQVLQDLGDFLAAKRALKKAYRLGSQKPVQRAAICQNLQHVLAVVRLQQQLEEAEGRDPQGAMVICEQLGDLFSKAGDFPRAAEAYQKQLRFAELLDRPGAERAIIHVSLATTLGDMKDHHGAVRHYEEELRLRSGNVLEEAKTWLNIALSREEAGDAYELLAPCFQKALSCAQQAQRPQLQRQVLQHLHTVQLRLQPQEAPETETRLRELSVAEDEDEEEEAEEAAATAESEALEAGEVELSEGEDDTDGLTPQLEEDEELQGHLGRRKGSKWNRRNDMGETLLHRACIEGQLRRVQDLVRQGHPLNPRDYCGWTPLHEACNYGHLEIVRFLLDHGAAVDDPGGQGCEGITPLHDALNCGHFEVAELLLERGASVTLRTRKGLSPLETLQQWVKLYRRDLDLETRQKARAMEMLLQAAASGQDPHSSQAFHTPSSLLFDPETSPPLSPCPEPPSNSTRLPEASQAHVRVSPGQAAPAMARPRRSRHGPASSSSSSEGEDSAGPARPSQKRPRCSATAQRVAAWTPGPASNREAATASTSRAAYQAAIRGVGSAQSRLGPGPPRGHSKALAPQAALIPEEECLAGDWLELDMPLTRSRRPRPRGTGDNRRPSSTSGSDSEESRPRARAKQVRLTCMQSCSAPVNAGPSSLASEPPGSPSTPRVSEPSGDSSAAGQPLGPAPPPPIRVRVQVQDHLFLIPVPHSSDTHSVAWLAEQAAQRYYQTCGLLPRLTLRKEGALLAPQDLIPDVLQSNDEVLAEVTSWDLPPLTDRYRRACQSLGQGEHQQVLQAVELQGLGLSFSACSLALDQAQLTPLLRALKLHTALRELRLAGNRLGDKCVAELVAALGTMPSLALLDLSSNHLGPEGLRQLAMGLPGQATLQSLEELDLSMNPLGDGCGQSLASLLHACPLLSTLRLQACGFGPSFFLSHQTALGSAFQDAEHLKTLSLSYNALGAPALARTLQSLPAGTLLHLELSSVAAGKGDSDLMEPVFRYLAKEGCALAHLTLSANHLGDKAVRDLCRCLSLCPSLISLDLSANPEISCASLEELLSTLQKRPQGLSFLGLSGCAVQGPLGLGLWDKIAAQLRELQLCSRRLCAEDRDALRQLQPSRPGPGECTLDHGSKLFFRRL
binding result [1],binding result [2],Binder
binds,,B1
,binds,"RAD51 (wild type, recombinant) (natural protein) MAMQMQLEANADTSVEEESFGPQPISRLEQCGINANDVKKLEEAGFHTVEAVAYAPKKELINIKGISEAKADKILAEAAKLVPMGFTTATEFHQRRSEIIQITTGSKELDKLLQGGIETGSITEMFGEFRTGKTQICHTLAVTCQLPIDRGGGEGKAMYIDTEGTFRPERLLAVAERYGLSGSDVLDNVAYARAFNTDHQTQLLYQASAMMVESRYALLIVDSATALYRTDYSGRGELSARQMHLARFLRMLLRLADEFGVAVVITNQVVAQVDGAAMFAADPKKPIGGNIIAHASTTRLYLRKGRGETRICKIYDSPCLPEAEAMFAINADGVGDAKD"
,binds,RAD51-K133R (natural protein) MAMQMQLEANADTSVEEESFGPQPISRLEQCGINANDVKKLEEAGFHTVEAVAYAPKKELINIKGISEAKADKILAEAAKLVPMGFTTATEFHQRRSEIIQITTGSKELDKLLQGGIETGSITEMFGEFRTGRTQICHTLAVTCQLPIDRGGGEGKAMYIDTEGTFRPERLLAVAERYGLSGSDVLDNVAYARAFNTDHQTQLLYQASAMMVESRYALLIVDSATALYRTDYSGRGELSARQMHLARFLRMLLRLADEFGVAVVITNQVVAQVDGAAMFAADPKKPIGGNIIAHASTTRLYLRKGRGETRICKIYDSPCLPEAEAMFAINADGVGDAKD
